Assay results reported in patent US20250003958A1.

Assays:
[1] = target: CD4 on CD4-positive cells (PBMCs) (UniProt P01730); assay: negative control; cells trapped by beads, released with DNase I, flow cytometry
[2] = target: CD8 on CD8-positive cells (PBMCs in Example 1, Immuno-Trol cells in Example 3) (UniProt P01732); assay: as above
[3] = target: CD8 on CD8-positive cells (PBMCs in Example 1, Immuno-Trol cells in Example 3) (UniProt P01732); assay: negative control; magnetic bead depletion of PBMCs, flow cytometry of the supernatant (28% before addition of beads)
[4] = target: CD8 on CD8-positive cells (PBMCs in Example 1, Immuno-Trol cells in Example 3) (UniProt P01732); assay: negative control; magnetic bead depletion of PBMCs, flow cytometry of the supernatant (72% before addition of beads)
[5] = target: CD4 on CD4-positive cells (PBMCs) (UniProt P01730); assay: negative control; magnetic bead depletion of PBMCs, flow cytometry of the supernatant (18% before addition of beads)
[6] = target: CD4 on CD4-positive cells (PBMCs) (UniProt P01730); assay: negative control; magnetic bead depletion of PBMCs, flow cytometry of the supernatant (82% before addition of beads)
[7] = target: CD8 on CD8-positive cells (PBMCs in Example 1, Immuno-Trol cells in Example 3) (UniProt P01732); assay: negative control; magnetic bead depletion of Immuno-Trol cells, flow cytometry of the supernatant (41% before addition of beads)
[8] = target: CD8 on CD8-positive cells (PBMCs in Example 1, Immuno-Trol cells in Example 3) (UniProt P01732); assay: negative control; magnetic bead depletion of Immuno-Trol cells, flow cytometry of the supernatant (59% before addition of beads)

UniProt P01732, sequence (P01732 22-235): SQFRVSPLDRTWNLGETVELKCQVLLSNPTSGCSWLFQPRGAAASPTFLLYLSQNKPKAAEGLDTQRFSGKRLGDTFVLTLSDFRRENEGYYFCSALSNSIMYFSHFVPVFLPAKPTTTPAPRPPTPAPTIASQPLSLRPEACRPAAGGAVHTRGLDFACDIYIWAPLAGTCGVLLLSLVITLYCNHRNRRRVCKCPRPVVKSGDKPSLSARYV

## Isotype Control antibody (Biolegend), modified with FITC-introduced synthetic oligo-DNA linker and immobilized on streptavidin magnetic beads
[1]
  Ratio of FITC-positive cells: 26%
[2]
  Ratio of FITC-positive cells: 19%
[3]
  Ratio of CD3-positive and CD4-negative cells remaining in the supernatant: 33%
[4]
  Ratio of CD3-positive and CD4-positive cells remaining in the supernatant: 67%
[5]
  Ratio of CD3-positive and CD8-positive cells remaining in the supernatant: 19%
[6]
  Ratio of CD3-positive and CD8-negative cells remaining in the supernatant: 81%

## Control antibody (Biolegend), held on streptavidin magnetic beads through oligo-DNA-modified Protein A/G
[7]
  Ratio of CD3-positive and CD4-negative cells remaining in the supernatant: 39%
[8]
  Ratio of CD3-positive and CD4-positive cells remaining in the supernatant: 61%
